{"source": "patent US20260256431A1", "about": "“IMAGING OF MATRIX METALLOPROTEINASE INHIBITORS” (Micro Vide, LLC, priority 2022, published 2026)", "origin": "cited, not measured here", "molecules": {"B1": {"name": "rTIMP-3: recombinant tissue inhibitor of metalloproteinases-3 (protein, UniProt P35625 24-211, looked up)", "Metalloproteinase inhibitor 3": "CTCSPSHPQDAFCNSDIVIRAKVVGKKLVKEGPFGTLVYTIKQMKMYRGFTKMPHVQYIHTEASESLCGLKLEVNKYQYLLTGRVYDGKMYTGLCNFVERWDQLTLSQRKGLNYRYHLGCNCKIKSCYYLPCFVTSKNECLWTDMLSNFGYPGYQSKHYACIRQKGGYCSWYRGWAPPDKSIINATDP"}}, "system": "MMP-2, MMP-9, and MMP-14", "data": [{"molecule": "B1", "values": [{"measurement": "MMP activity and LV remodeling and indices of heart failure progression", "setting": "intracoronary delivery in pigs at the time of reperfusion, earlier study", "value": "favorably reduced"}, {"measurement": "tissue MMP-2, MMP-9, and MMP-14 activity", "setting": "sustained release of rTIMP-3 from a hydrogel, observed previously", "value": "inhibition"}]}]}
